Measurements published in the nanobody polyreactivity screen of Harvey et al. (2022).

Assay: yeast display, Sf9 membrane polyspecificity reagent, FACS + sequencing; frameworks hold sequencing errors
Method in brief: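 Synthetic nanobody libraries on Saccharomyces cerevisiae BJ5465 were galactose-induced for 36–48 hours, stained 1 hour at 4 °C with 10% biotinylated, detergent-solubilized Sf9 membrane reagent and enriched on streptavidin microbeads. FACS then separated cells into low and high (top ~1%) gates by anti-HA (expression) and streptavidin (reagent binding) fluorescence. Genes were colony-PCR amplified, MiSeq 2 × 250 sequenced and CDR-length filtered. A clone's polyreactivity label is that of its gate of origin.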
With “QVQIVESGGGLVQAGGSLRLSCAPSGSNIDYNDMGRYRQAPGKEWELVAAISGRGTRTYYADSVKGRFTISRDNAKNTVYLQMNSLKPEDTAVYYCAASTRGRYWGRFGYWGQRTQVTVSS” the “polyreactivity (PSR sort gate)” value was “high polyreactivity”.
For “QVQIVESGGGLVQAGGSLRLSCASSGSTFTHYAMGWYRQAPGKERELVAGISWGGSSTYYADSVKGRFTISRDNAKNTVYLQMNSLKPEDTAVYYCAAGRRGSYPGGYGYWGQGTQVTVSS”, the “polyreactivity (PSR sort gate)” value was “low polyreactivity”.
With “QVQIVESGGGLVQAGGSLRLSCASSGSTFVPNDMGSYRQAPWKERELVAAISRSGDDTYYADSVKGRFTISRDNAKNTVYFQMNSLIPEDTAVYYCNAAGRPFFLRPLRWELDYWGQGTQVTVSS” the “polyreactivity (PSR sort gate)” value was “low polyreactivity”.
With “QVQIVESGGGLVQAGGSLRLSCGASGSTLGWYGMGWYRQAPGKERELVATISESGGSTYYADSVKGRFTISRDNAKNTVYLQMNSLKPEDTAVYYCAADDRGLISRRGYFYLSYDYWGQGTQVTVSS” the “polyreactivity (PSR sort gate)” value was “low polyreactivity”.
With “QVQIVESGGGLVQAGGSLRLSCSASGNIFYKYAMGWFRQAPGKERELVAAITWRVVRTYYADSVKGRFTISRDNAKNTVYLQMNSLKPEDTAVYYCAALSRQSGDYWGQGTQLTVSS” the “polyreactivity (PSR sort gate)” value was “high polyreactivity”.
In the case of “QVQIVESGGGLVQAGGSLRLSCTASGRIFYRYAMGWYRQAPGKERELVAAIRYSGGRTYYADSVKGRFTISRDNAKNTVYLQMNSLKQEDTAVYYCAADGQWYYAPFRGGVYENDYWGQGTQVTVSS”, the “polyreactivity (PSR sort gate)” value is reported as “low polyreactivity”.
With “QVQIVESGGGLVQAGGSLRLSSAAYGSTFAIYTMGWSRQAPGKERELVATISYSGGGTYYADSVKGRFTISRDNAKNTVYLQMNSLKPEDTAVYYCAAGRRTYYGTYYYWGQGTQVNVSS” the “polyreactivity (PSR sort gate)” value was “high polyreactivity”.
For “QVQIVESGGGLVQAGGSLRLTCAASGFTLPIYAMGWYRQAPGKEREFVAAITASGDNTYYADSVKGRFTISRDNAKNTVYLQMNSLKPEDTAVYYCAAAHWWIVGYDYWGQGTQVTVSS”, the “polyreactivity (PSR sort gate)” value was “low polyreactivity”.
For “QVQIVESGGGLVQAGGSLRLTCAASGSIFGDYAMGWYRQASGKERELVASISESGGSTYYADSVKGRFTISRDNAKNTVYLQMISLKPEDTAVYYCNTDYDYGWWDLGEYEYWGHGTQVTVSS”, the “polyreactivity (PSR sort gate)” value was “low polyreactivity”.
In the case of “QVQIVESGGGLVQAGGSLRLTCAASGSTFYDYAMGWYRQAPGKERDLVAAITSADSTNYADSVKGRFTISRDNAKNTVYLQMNSLKPEDTAVYYCGQGTQVTVSS”, the “polyreactivity (PSR sort gate)” value is reported as “low polyreactivity”.
For “QVQIVESGGGLVQAGGSLRLTCAASGYIFKYYAMGWYRQAPGKERELVAAITIGGNTNYADSVKGRFTISRDNAKNTVYLQMNSLKPEDTAVYYCATGGYYSAIVYGGYDYWGQGTQVTVSS”, the “polyreactivity (PSR sort gate)” value was “low polyreactivity”.
In the case of “QVQIVESGGGLVQAGGSLRVSCAASGSIYTYNGMGWYRQAPWKERELDAAISASGGRTYYADSVKGRYTISRDNAKNTVYLQMNRLKPEDNAVYYCAARILVSGLSRFDYWGQGTQVTVSA”, the “polyreactivity (PSR sort gate)” value is reported as “high polyreactivity”.
For “QVQIVESGGGLVQAGGSLSLICAASGYIFGNYAMGWYRQAPGKESELVADITWRGDSTYADSVKGRFTISRDNSKNTVYLQMNSLKPEDTAVYYCAADIATEYWYTGYDHWGQGTQVTVSS”, the “polyreactivity (PSR sort gate)” value was “low polyreactivity”.
With “QVQIVESGGGLVQAGRSLRLSCAASGLIFRAYAMGWYRQAPGKDRELVAAITRSGGRTYYADSVKGRFTISRDNAKNTVYLQMNTLKPVDTAVYYSAAEYGNTYSSYTYDYWGQGTQVNVSS” the “polyreactivity (PSR sort gate)” value was “high polyreactivity”.
With “QVQIVESGGGLVQAGVSLRLSCAASGSIYYEYTMGWYRQAPGKERELVAVITSCGTTNYADSVKGRFTISRDNAKNTVFLQMNSLKPEDTAVYYCAAKRRTGGNGYWGQGTQVTVSS” the “polyreactivity (PSR sort gate)” value was “high polyreactivity”.
In the case of “QVQIVESGGGLVQARGSLRLSCAASGFIFGSYASGWYRQAPGKERELVAAISWNGDSTYYADSVKGRFTISRDNAKITVYLQMNSLKPEDTAVYYCNAVDVFLYQTDGLGDYWGQGTQVTVSS”, the “polyreactivity (PSR sort gate)” value is reported as “low polyreactivity”.
With “QVQIVESGGVLVQAGGSLRLSCAASGLTFVQYDMGWYRHAPGKERELVADISGSAGDTYYADSVKGRFTISRDNAKKTVYLQMNSLKPEDTAVYYCNAYGAEYLQYGWRDYWGQGTQLTVSS” the “polyreactivity (PSR sort gate)” value was “low polyreactivity”.
For “QVQIVESGRGLVQAGGSLRLSCAASGSIFHPKAMGWYRQAPGKERELVAAITSGGGSTYYADSVKVRYTISRDNAKNTVYLQMNSLKPEDTAVYYCNKVFVLPYKFVAWFDYWGQGTQVTVSS”, the “polyreactivity (PSR sort gate)” value was “low polyreactivity”.
For “QVQIVESVGRLVQAGCSLRLSCDASGRIFGTNAKGWYSQAPGKDRELFAAINGSDSSTYYADSVKGRFTISRDNAKNSDYLQMNSLKPEDNAVYYCNADWSRAPERSTYGYDYWGHGTQVTVSS”, the “polyreactivity (PSR sort gate)” value was “low polyreactivity”.
With “QVQIVETGGGLVQAGGSLRISCAASGSTLIRNVMGWYRQAPGKERELVAAINTRGTTTYYADSVKGRFTISRDNAKNTVYLQMNSLKPEDTAVYYCAAYAYSAYSPDGQRSRYYYWGLGTQVTVSS” the “polyreactivity (PSR sort gate)” value was “high polyreactivity”.
In the case of “QVQIVETGGGLVQAGGSLRLSCAASGRIFFRNPMGWYRPAPRKEREFVAAINWSGGSTYYADSVKGRFTISRDNAKNTVYLQMNSLKPEDTAVYYCAARGSRGGRRGATASMDYWGQGTQVTVSS”, the “polyreactivity (PSR sort gate)” value is reported as “high polyreactivity”.
With “QVQLAESGGGLVQAGGSLRLSCAASGGTIGVNAMGWYRQAPGKERELVARISRIGASTHYADSVKGRFTISRDNAKNTVYLMMNSLKPEDTAVYYCAKSNGTPGNFGYWGQGTQVTVSS” the “polyreactivity (PSR sort gate)” value was “low polyreactivity”.
For “QVQLAESGGGLVQAGVSLRISCAASGSTFSVYAMGWYRQAPGKERELVATIRRGGSTYADSVKGRFTISRDNAKITVYLQMNRLKPEDTAVYYCASDAYVSYQPMDYWGQGTQVTVSS”, the “polyreactivity (PSR sort gate)” value was “high polyreactivity”.
For “QVQLEDSGGGLVQAGARLRLSCAASGSTFAQNAMGRYRQAPGKERELVAAITYSGGSTYYADSVKGRFSISRDNAKNTVYLQMNSLKPEDTAVYYCAADVWWSYYRYDYWGQATQVTVSS”, the “polyreactivity (PSR sort gate)” value was “low polyreactivity”.
In the case of “QVQLEDSGGGLVQAGGRLRLSCAASGYIFSDYAMGWYRQAPGKERELVADIRARGGSTYYADSVKGRFTISRDKAQNTVYLQMNSLKPEDTAVYYCNVEDPFYSGVVEFDYWGQGTQVTVSS”, the “polyreactivity (PSR sort gate)” value is reported as “low polyreactivity”.
For “QVQLEDSGGGLVQAGGRLRLTCAASGSIFSLNAMGWSRKAPGKERELVAAINSGGTTNYADSVKGRFTISRDNAKNTVYLQMNSLKPEDSAVYYCATDGYYYYYRVYKFDYWGLGTQVTVSS”, the “polyreactivity (PSR sort gate)” value was “low polyreactivity”.
In the case of “QVQLEDSGGGLVQAGGSLRLSCAASGITVFYYAMGWSRQAPGKERELVATMSWGGDSTYSADSVKGRFTISRDNAKNTVYLQMNSLKPEDTAVYYCAARYWFFRFWYDYWGQGTQVTVSS”, the “polyreactivity (PSR sort gate)” value is reported as “high polyreactivity”.
For “QVQLEDSGGGLVQAGGSLRLSCAASGSTFPLNAMGWYRQAPGKERELVASINFGGGTTYYADSVKGRFTISRDNAMNTVYLQMNSLKPEDTAVYYCAADVYQEFGYWGQGTQVTVSS”, the “polyreactivity (PSR sort gate)” value was “high polyreactivity”.
In the case of “QVQLEDSGGGLVQAGGSLRLTCAASGRIFYPNVIGRNRQAPGKERELVAAIRTSGTGTYYADSVKGRFTISRDNAMNNVYLQMNSQKTQDTAGYYCAADYGYNRYWWWDWSYEYGYEYWGQGTQVTVSS”, the “polyreactivity (PSR sort gate)” value is reported as “high polyreactivity”.
For “QVQLEEKRRGLVQAGGSLRLSCASSGRTFVTNAMGRYRQAPGKERELVAAISSSGGSTYYADSVKGRFTISRDNAMNTVYLQMNSLKPEDTAVYYCAVAGQTKGQYDYWGQGTQVTVSS”, the “polyreactivity (PSR sort gate)” value was “low polyreactivity”.
With “QVQLEESAGGLVQAGGSLRLSCAASGRIFTGSNVMVWYRQSPGKETEFVAVINSGGGSTYYADSVKGRFTISRDNAKNTVFLQMNSLKPEDTAVYYCAADVGGWGYYYWGQGTQVTVSS” the “polyreactivity (PSR sort gate)” value was “low polyreactivity”.
With “QVQLEESAGGLVQAGGSLRLSCAASGSIFRVYGMGWYRQAPGKVTELVASITYRGGNTYYADSVKGRFTISRDNAKNTVYVQMNSLKPEDTAVFDCARSGYQKVGGFRSDYWGQGTEVTVSS” the “polyreactivity (PSR sort gate)” value was “low polyreactivity”.
For “QVQLEESCGGLVQAGGSLRLSCAASGSIFGTYAMGLYRHAPGKEREFVADISGIGTSTYYADSVKGRFTISRDNAKNTVYLQMNSLKPEDTAVYYCAAESFDTVEYDYWGQGTQVTVSS”, the “polyreactivity (PSR sort gate)” value was “low polyreactivity”.
With “QVQLEESGAGLVQARGSLRLSCAASGRTFIWNAMGWYRQAPGKERELVAAISSRGGRTYYADSVKGRFTISRDNAKNTVYLQMNILKPEDTAVYYCAAYYITFIGRGYGYWGQGTQVTVSS” the “polyreactivity (PSR sort gate)” value was “high polyreactivity”.
With “QVQLEESGGALFQAGGSIRLSCAASGYTFDAYAMGWYRQAPGKERELVADINYSVGSTTYADSVKGRFTISRDNAKNTVYLQMNSLKTEDTAVYYCAAQGTWYAWDYDYWGQGTQVTVSS” the “polyreactivity (PSR sort gate)” value was “low polyreactivity”.
In the case of “QVQLEESGGGIVQAGGSLRLSCAASGGIFGTYAMGWYRQAPRKERELVASISSDTSTTYADSVKGRFTISRDNAKNTVYLQMNSLKAEDTAVYYCAAGSDYDDDYWGQGTQVTVSS”, the “polyreactivity (PSR sort gate)” value is reported as “high polyreactivity”.
With “QVQLEESGGGIVQAGGSLRLSCAASGRTCSNYAMGWNRQAPGKERQLVASIRSSGTSTYYADSVKGRFTISRDIAKNTVYLKMNSLKPEDTAVYYCAKRYFTWSSTYNYWGQGTQVTVSS” the “polyreactivity (PSR sort gate)” value was “high polyreactivity”.
In the case of “QVQLEESGGGIVQAGGSLRLSCAASGSTFNYYAMGWYRQAPGKERELVAAINSNGGSTYYADSVKGRFTISRDNAKNTVYLQMNSPKPEDTAVYLCAADISPYDYDYWGQGTQVTVSS”, the “polyreactivity (PSR sort gate)” value is reported as “high polyreactivity”.
For “QVQLEESGGGIVQAGGSLRLSCAASGSTFVLNAMGWYRKAPGKERELVAAITRDGRTYYADSVKGRFTISRDNAKNTVYLQMNSLKPEDTAVYYCARPARYSYGDGYWGQGTLVTVSS”, the “polyreactivity (PSR sort gate)” value was “low polyreactivity”.
In the case of “QVQLEESGGGIVQAGGSLRLSCASSGFIFKAYAMVWSRQAPGKERDLVAVITGSSGRTYADSVKGRFTISRDNAKNTVYLQMNSLKPEDTAVYYCAADLRKSKYRYWRRYDYWGQGTQVTVSS”, the “polyreactivity (PSR sort gate)” value is reported as “high polyreactivity”.
With “QVQLEESGGGIVQAGGTLRLTCAASGRIYATNAMGWSRQAPGKERELVATITRSAGRTYYADSVKGRFTISGDNAKNTVYLQMNSLKPEDTAVYYCAASYWDTEPGYREYDYWGQGTEVTVSS” the “polyreactivity (PSR sort gate)” value was “low polyreactivity”.
